The subject of one series is CC(C)C=O. Briefly: cells, lysate or membranes. The note with it: conversion to isobutanol.
Substrate in series [1]: CC(C)C=O
The experiment in a line: Alcohol dehydrogenase kinetic assay, Ec_FucO. Particulars: conversion to isobutanol. It counts as biochemical, E. coli. The method, then: (§1) E. coli strain GEVO1745 was transformed by electroporation with one of plasmids pGV1705-A, pGV1748-A, pGV1749-A, or pGV1778-A. 50 mL of TB medium (23.1 g/L KH2PO4, 125.4 g/L K2HPO4, 12 g/L Bacto-tryptone, 24 g/L yeast extract, 4 ml/L glycerol) were inoculated to an initial OD600 of 0.2 using a 3 mL overnight LB culture of a single colony. The 50 mL culture was allowed to grow for 3-4 hrs at 250 rpm and 37° C. Protein expression was induced at an OD600 of 2-2.5 by the addition of IPTG to a final concentration of 1 mM. After the addition of IPTG, protein expression was allowed to continue for 20-24 hours at 225 rpm and 25° C.
(§2) Alcohol dehydrogenase (ADH) activity was assayed kinetically by monitoring the decrease in NAD(P)H concentration by measuring the absorbance at 340 nm. A reaction buffer was prepared containing 0.1 M potassium phosphate, 0.4 mM NAD(P)H, 10 mM isobutyraldehyde, 1 mM DTT, and 1 mM PMSF. Cell pellets were resuspended in 0.1 M potassium phosphate buffer containing 1 mM DTT and 1 mM PMSF at one fifth of the culture volume, i.e. 10 mL resuspension buffer for cell pellet from a 50 mL culture. The resuspended cells were lysed by sonication for 1 min with a 50% duty cycle. The reaction was initiated by the addition of 0.5 mL of the reaction buffer to 0.5 mL of clarified lysate in a cuvette. […]

Substrate in series [2]: CC(C)C=O
The experiment in a line: Alcohol dehydrogenase kinetic assay, Dm_Adh. It counts as biochemical, Drosophila melanogaster. Particulars: conversion to isobutanol. The procedure: as §1, §2

Substrate in series [3]: NC(=O)C1=CN([C@@H]2O[C@H](COP(=O)(O)OP(=O)(O)OC[C@H]3O[C@@H](n4cnc5c(N)ncnc54)[C@H](O)[C@@H]3O)[C@@H](O)[C@H]2O)C=CC1
The experiment in a line: KARI assay, purified Ec_IlvC^P2D1-A1-his6. It counts as biochemical, E. coli. The note with it: other: expressed in yeast GEVO1186, purified; 30.0 °C. The method, then: (§3) KARI cuvette assay: KARI activity was assayed kinetically by monitoring the decrease in NAD(P)H concentration by measuring the absorbance at 340 nm. A reaction buffer was prepared containing 250 mM potassium phosphate pH 7, 1 mM DTT and 10 mM MgCl2. Cell pellets were resuspended (0.25 g wet weight/mL buffer) in 250 mM potassium phosphate (KPi) buffer containing 1 mM DTT and 10 mM MgCl2. The resuspended cells were lysed by sonication for 1 min with a 50% duty cycle and pelleted at 11000×g and 4° C. for 15 min. A reaction mixture consisting of 910 μl reaction buffer, 50 μl acetolactate, and 20 μl lysate was prepared in a cuvette. The reaction was initiated by addition of 20 μL of 10 mM NAD(P)H. A substrate free control was conducted using reaction buffer without the addition of acetolactate.
(§4) Purification of KARI: Cell pellets used for purification were resuspended in purification buffer A (20 mM Tris, 20 mM imidazol, 100 mM NaCl, 10 mM MgCl2, pH 7.4). KARI was purified by IMAC (Immobilized metal affinity chromatography) over a 1 ml Histrap High Performance (histrap HP) column pre-charged with Nickel (GE Healthcare) using an Akta FPLC system (GE Healthcare). The column was equilibrated with four column volumes (cv) of buffer A. After injecting the crude extract, the column was washed with buffer A for 2 cv, followed by a wash step with a mixture of 10% elution buffer B (20 mM Tris, 300 mM imidazol, 100 mM NaCl, 10 mM MgCl2, pH 7.4) for 5 cv. KARI variants were eluted at 40% buffer B and stored at 4° C.
Improved variants were expressed and purified from GEVO1186. 20 mL SC-URA medium overnight cultures were grown at 30° C. and 250 rpm in 250 mL flasks and were then used to inoculate 96 well deep well plates on the next morning. 50 μL of the overnight cultures were transferred into 600 μL SC-URA medium per well. The plates were then grown at 30° C. and 250 rpm in a humidified plate shaker for 8 h. In order to the harvest, the cultures were transferred into 50 mL Falcon tubes and then spun down at 4° C. and 5,000 rpm for 10 min. […]

Substrate in series [4]: NC(=O)C1=CN([C@@H]2O[C@H](COP(=O)(O)OP(=O)(O)OC[C@H]3O[C@@H](n4cnc5c(N)ncnc54)[C@H](OP(=O)(O)O)[C@@H]3O)[C@@H](O)[C@H]2O)C=CC1
Briefly: KARI assay, purified Ec_IlvC^P2D1-his6. It counts as biochemical, E. coli. Particulars: other: expressed in yeast GEVO1186, purified; 30.0 °C. The method, then: as §3, §4
(§5) Improved variants were expressed and purified from GEVO1186. 20 mL SC-URA medium overnight cultures were grown at 30° C. and 250 rpm in 250 mL flasks and were then used to inoculate 96 well deep well plates on the next morning. 50 μL of the overnight cultures were transferred into 600 μL SC-URA medium per well. The plates were then grown at 30° C. and 250 rpm in a humidified plate shaker for 8 h. In order to the harvest, the cultures were transferred into 50 mL Falcon tubes and then spun down at 4° C. and 5,000 rpm for 10 min. The pellets were frozen until they were processed and purified as described in Example 14 above.
(§6) Results: Two rounds of error-prone PCR and screening were carried out. The libraries (˜2400 clones per library) were screened using the KARI high-throughput assay. […] In the first round variant Ec_llvC^P2D1-his6 (SEQ ID NO: 38), encoded by Ec_ilvC_coSc^P2D1-his6 (SEQ ID NO: 37) was identified carrying the following mutations: D146G and G185R. This variant served as parent for the second round of error-prone PCR and screening which yielded variant Ec_llvC^P2D1-A1-his6 (SEQ ID NO: 42), encoded by Ec_ilvC_coSc^P2D1-A1-his6 (SEQ ID NO: 41) with one additional mutation (K433E). A two-fold improvement of the specific activity in lysate and in the purified enzyme was observed after two rounds of error-prone PCR.

Substrate in series [5]: NC(=O)C1=CN([C@@H]2O[C@H](COP(=O)(O)OP(=O)(O)OC[C@H]3O[C@@H](n4cnc5c(N)ncnc54)[C@H](O)[C@@H]3O)[C@@H](O)[C@H]2O)C=CC1
Briefly: KARI assay, purified Ec_IlvC^P2D1-his6. Particulars: other: expressed in yeast GEVO1186, purified; 30.0 °C. It counts as biochemical, E. coli. The procedure:
as §3, §4, §5, §6

This note sets out measurements from patent US8097440B1, “Engineered microorganisms capable of producing target compounds under anaerobic conditions” (Gevo, Inc., priority 2008, dated 2012).

Take “Klebsiella pneumoniae propanediol dehydrogenase Kp_DhaT, SEQ ID NO: 63 (Klebsiella pneumoniae)”: the Michaelis-Menten constant (Km) in the series with CC(C)C=O (other: NADH as cofactor) stood at 1300 µM; in the series on CC(C)C=O (other: NADPH as cofactor), 600 µM.

B1: Escherichia coli propanediol dehydrogenase Ec_FucO, SEQ ID NO: 65 (Escherichia coli K-12) (protein)
chain: MMANRMILNETAWFGRGAVGALTDEVKRRGYQKALIVTDKTLVQCGVVAKVTDKMDAAGLAWAIYDGVVPNPTITVVKEGLGVFQNSGADYLIAIGGGSPQDTCKAIGIISNNPEFADVRSLEGLSPTNKPSVPILAIPTTAGTAAEVTINYVITDEEKRRKFVCVDPHDIPQVAFIDADMMDGMPPALKAATGVDALTHAIEGYITRGAWALTDALHIKAIEIIAGALRGSVAGDKDAGEEMALGQYVAGMGFSNVGLGLVHGMAHPLGAFYNTPHGVANAILLPHVMRYNADFTGEKYRDIARVMGVKVEGMSLEEARNAAVEAVFALNRDVGIPPHLRDVGVRKEDIPALAQAALDDVCTGGNPREATLEDIVELYHTAW
notes: clarified crude lysate
For B1, the values for the Michaelis constant (Km) in series [1] (other: NADH as cofactor) and in series [1] (other: NADPH as cofactor) were 800 µM and 200 µM, respectively.

B2: Drosophila melanogaster alcohol dehydrogenase Dm_Adh, SEQ ID NO: 61 (Drosophila melanogaster) (protein)
chain: MSFTLTNKNVIFVAGLGGIGLDTSKELLKRDLKNLVILDRIENPAAIAELKAINPKVTVTFYPYDVTVPIAETTKLLKTIFAQLKTVDVLINGAGILDDHQIERTIAVNYTGLVNTTTAILDFWDKRKGGPGGIICNIGSVTGFNAIYQVPVYSGTKAAVVNFTSSLAKLAPITGVTAYTVNPGITRTTLVHTFNSWLDVEPQVAEKLLAHPTQPSLACAENFVKAIELNQNGAIWKLDLGTLEAIQWTKHWDSGI
notes: clarified crude lysate
Turning to B2, the Km in series [2] (other: NADH as cofactor) came to 900 µM; in series [2] (other: NADPH as cofactor), 2700 µM.

B3: E. coli KARI Ec_IlvC variant Ec_IlvC^P2D1-A1-his6 (Ec_IlvC^P2D1-his6 with K433E), SEQ ID NO: 42 (Escherichia coli K-12; A71S/D146G/G185R/K433E/Q110V/R76D/S78D) (protein)
chain: MANYFNTLNLRQQLAQLGKCRFMGRDEFADGASYLQGKKVVIVGCGAQGLNQGLNMRDSGLDISYALRKESIAEKDADWRKATENGFKVGTYEELIPQADLVINLTPDKVHSDVVRTVQPLMKDGAALGYSHGFNIVEVGEQIRKGITVVMVAPKCPGTEVREEYKRGFGVPTLIAVHPENDPKREGMAIAKAWAAATGGHRAGVLESSFVAEVKSDLMGEQTILCGMLQAGSLLCFDKLVEEGTDPAYAEKLIQFGWETITEALKQGGITLMMDRLSNPAKLRAYALSEQLKEIMAPLFQKHMDDIISGEFSSGMMADWANDDKKLLTWREETGKTAFETAPQYEGKIGEQEYFDKGVLMIAMVKAGVELAFETMVDSGIIEESAYYESLHELPLIANTIARKRLYEMNVVISDTAEYGNYLFSYACVPLLEPFMAELQPGDLGKAIPEGAVDNGQLRDVNEAIRSHAIEQVGKKLRGYMTDMKRIAVAGHHHHHH
Consider B3, for which, in series [3], the Michaelis-Menten constant (Km) amounted to 26 µM, the kcat came to 4.3 s⁻¹ and the kcat/Km is listed as 167,687 M^−1 * S^−1.

B4: E. coli KARI Ec_IlvC variant Ec_IlvC^P2D1-his6 (Ec_IlvC^6E6-his6 with D146G and G185R), SEQ ID NO: 38 (Escherichia coli K-12; A71S/D146G/G185R/Q110V/R76D/S78D) (protein)
chain: MANYFNTLNLRQQLAQLGKCRFMGRDEFADGASYLQGKKVVIVGCGAQGLNQGLNMRDSGLDISYALRKESIAEKDADWRKATENGFKVGTYEELIPQADLVINLTPDKVHSDVVRTVQPLMKDGAALGYSHGFNIVEVGEQIRKGITVVMVAPKCPGTEVREEYKRGFGVPTLIAVHPENDPKREGMAIAKAWAAATGGHRAGVLESSFVAEVKSDLMGEQTILCGMLQAGSLLCFDKLVEEGTDPAYAEKLIQFGWETITEALKQGGITLMMDRLSNPAKLRAYALSEQLKEIMAPLFQKHMDDIISGEFSSGMMADWANDDKKLLTWREETGKTAFETAPQYEGKIGEQEYFDKGVLMIAMVKAGVELAFETMVDSGIIEESAYYESLHELPLIANTIARKRLYEMNVVISDTAEYGNYLFSYACVPLLKPFMAELQPGDLGKAIPEGAVDNGQLRDVNEAIRSHAIEQVGKKLRGYMTDMKRIAVAGHHHHHH
Regarding B4, in series [4], the Michaelis-Menten constant (Km) amounted to 1432 µM, the turnover number (kcat) is 0.54 s⁻¹ and the kcat/Km turned out to be 377 M^−1 * S^−1. In series [5], the Km came out at 40 µM, the catalytic constant (kcat) was determined as 3.3 s⁻¹ and the kcat/Km is recorded as 82,650 M^−1 * S^−1.

In general, Km refers to the concentration of substrate that gives half-maximal velocity. A word on the kcat: it is the maximal rate divided by the concentration of active sites.
